Measured values as given in patent publication US20130072665A1 (Amgen, published 2013).
Read-outs that look alike come from different tables or passages of the source.

Assays:
[1] = molecular target: T1, PCSK9 ProCat (31-449 of SEQ ID NO: 3) (human, UniProt Q8NBP7 27-449); test: domain binding ELISA (coated antibody captures the PCSK9 form; OD650)
T1 construct: From PCSK9 449TEV after rTEV cleavage: GAMG-PCSK9 (31-449)-ENLYFQ; Written as one chain; autocatalysis between 152 and 153 splits pro-domain and catalytic domain; also called procat PCSK9; PCSK9 31-449

[2] = molecular target: T2, PCSK9 V domain (450-692 of SEQ ID NO: 3) (human, UniProt Q8NBP7 450-692); test: as above
T2 construct: also called v-domain PCSK9
T2 chain: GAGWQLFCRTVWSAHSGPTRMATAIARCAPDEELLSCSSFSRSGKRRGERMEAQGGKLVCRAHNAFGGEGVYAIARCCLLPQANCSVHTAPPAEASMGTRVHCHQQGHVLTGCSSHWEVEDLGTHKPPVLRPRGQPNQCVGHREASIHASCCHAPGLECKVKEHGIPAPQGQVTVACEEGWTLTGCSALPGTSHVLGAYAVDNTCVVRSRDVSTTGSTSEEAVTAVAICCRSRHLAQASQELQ

[3] = molecular target: T3, human PCSK9 (proprotein convertase subtilisin kexin type 9) (human, UniProt Q8NBP7 31-692); test: BIAcore kinetic assay 2
T3 construct: Used untagged, biotinylated, V5/His- or His-tagged depending on the assay; also called hPCSK9; huPCSK9

[4] = molecular target: T3, human PCSK9 (proprotein convertase …); test: BIAcore kinetic assay 2, antibody captured, pH 7.4
[5] = molecular target: T3, human PCSK9 (proprotein convertase …); test: BIAcore kinetic assay 2, antibody captured, pH 5.5
[6] = molecular target: T3, human PCSK9 (proprotein convertase …); test: BIAcore kinetic assay 2, antibody captured, pH 6.0
[7] = molecular target: T1, PCSK9 ProCat (31-449 of SEQ ID NO: 3); test: domain binding ELISA (coated antibody captures the PCSK9 form; OD650); remark: listed apart in the source
[8] = molecular target: T2, PCSK9 V domain (450-692 of SEQ ID NO: 3); test: as above
[9] = molecular target: T3, human PCSK9 (proprotein convertase …); test: BIAcore solution equilibrium, pH 5.5
[10] = molecular target: T3, human PCSK9 (proprotein convertase …); test: BIAcore solution equilibrium, pH 7.4
[11] = molecular target: T3, human PCSK9 (proprotein convertase …); test: BIAcore solution equilibrium, pH 6.0

B1: 26H5 (antibody, V domains shown)
VH: QVQLVQSGAEVKKPGASVKVSCKASGYTLTSYGISWVRQAPGQGLEWMGWISFYNGNTNYAQKVQGRVTMTTDTSTSTVYMELRSLRSDDTAVYYCARGYGMDVWGQGTTVTVSS
VL: QSALTQPASVSGSPGQSITISCTGTSSDVGGYNSVSWYQQHPGKPPKLMIYEVSNRPSGVSIRFSGSKSGNTASLTISGLQAEDEADYFCSSYTSTSMVFGGGTKLTVL
notes: also called 26H5-7.4
- binding result [1]: binds
- binding result [2]: no binding
- off rate ratio pH 5.5/pH 7.4 [3]: 0.5
- off rate ratio pH 6.0/pH 7.4 [3]: 0.8
- koff [4]: 0.00056 s⁻¹
- koff [5]: 0.00026 s⁻¹
- koff [6]: 0.00047 s⁻¹

B2: 30A4 (antibody, V domains shown)
VH: QVQLVESGGGVVQPGRSLRLSCAASGFTFSSYGMHWVRQAPGKGLEWVAVIWYDGSDKYYADSVKGRFTISRDNSKNTLYLQMNSLRAEDTAVYYCARETGPLKLYYYGMDVWGQGTTVTVSS
VL: DIVMTQSPLSLSVTPGEPPSISCRSSQSLLHSNGYNFLNWYLQKPGQSPQLLIYLGSHRASGVPDRFSGSGSGTDFTLEISRVEAEDVGVYYCMQVLQTPFTFGPGTKVDIK
- binding result [7]: binds
- binding result [8]: no binding

B3: 13H1 (antibody, V domains shown)
VH: QVQLQQSGPGLVKPSQTLSLTCAISGDSVSSNSAAWNWIRQSPSRGLEWLGRTYYRSKWYKNYSVSVKSRITINPDTSKNQFSLQLNSVTPGDTAVYYCARGGPTAAFDYWGQGTLVTVSS
VL: LSALTQPASVSGSPGQSITISCTGTSSDVGNYNLVSWYQQYSGKAPKLMIYEVSKRPSGVSNRFSGSKSGNTASLTISGLQAEDEADYYCCSYAGSSTLVFGGGTKLTVL
- binding result [7]: binds
- binding result [8]: no binding

B4: 9H6 (antibody, V domains shown)
VH: EVQLVESGGGLVQPGGSLRLSCAASGFTFSRYWMSWVRQAPGKGLEWVANIKHDGSEKYYVDSVKGRFTISRDNAKNSLYLQMNSLRAEDTAVYYCARESNWGFAFDVWGHGTMVTVSS
VL: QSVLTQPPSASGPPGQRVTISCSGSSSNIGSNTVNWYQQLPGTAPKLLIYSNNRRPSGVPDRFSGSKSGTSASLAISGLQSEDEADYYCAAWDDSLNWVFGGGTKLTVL
- Kd [9]: 1.4 nM
- binding result [7]: binds
- binding result [8]: no binding
- Kd [10]: 0.7 nM
- Kd [11]: 1.3 nM

B5: 27B2 (antibody, V domains shown)
VH: QVQLQESGPGLVKPSQTLSLTCTVSGGSISSGGYYWSWIRQHPGKGLEWIGYIYNSGSTYYNPSLKSRVTISVDTSKNQFSLKLSSVTAADTAVYYCAREDTAMVPYFDYWGQGTLVTVSS
VL: QSVLTQPPSVSGAPGQRVTISCTGSSSNIGAHYDVHWYQQVPGTAPKLLIYGNTYRPSGVPDRFSGSKSGTSASLAITGLQAEDEADYYCQSYDNSLSGVVFGGGTKLTVL
notes: also called 27B2.3; 27B2.3-7.4
- off rate ratio pH 5.5/pH 7.4 [3]: 1.4
- off rate ratio pH 6.0/pH 7.4 [3]: 1.3
- koff [4]: 0.00038 s⁻¹
- koff [5]: 0.00052 s⁻¹
- koff [6]: 0.00051 s⁻¹

B6: 23B5 (antibody, V domains shown)
VH: EVQLLESGGGLVQPGGSLRLSCAASGFTFSSYAMNWVRQAPGKGLEWVSTISGSGDNTYYADSVKGRFTISRDNSKNTLYLQMNSLRAEDTAVYYCAKKFVLMVYAMLDYWGQGTLVTVSS
VL: DILMTQSPSSLSASVGDRVTITCRASQSISSYLNWYQQKPGKAPKVLIYAASSLQSGVPSRFSGSGSGTDFTLTINSLQPEDFATYYCQQSYSSPITFGQGTRLEIK
- Kd [9]: 0.28 nM
- binding result [7]: binds
- binding result [8]: no binding
- Kd [10]: 0.1 nM
- Kd [11]: 0.2 nM

B7: 25G4 (antibody, V domains shown)
VH: EVQLLESGGGLVQPGGSLRLSCAASGFTFSSYAMNWVRQAPGKGLEWVSTISGSGGNTYYADSVKGRFTISRDNSKNTLYLQMNSLRAEDTAVYYCAKKFVLMVYAMLDYWGQGTLVTVSS
VL: DIQMTQSPSSLSASVGDRVTITCRASQSISIYLNWYQQKPGKAPYLLIYAAASLQSGVPSRFSGSGSGTDFTLTISSLQPEDFATYYCQQSYSAPITFGQGTRLEIK
- binding result [7]: binds
- binding result [8]: no binding
